{
  "source": "paper PMC9171630",
  "about": "(Proceedings of the National Academy of Sciences of the …, 2022)",
  "binders": {"B1": {"name": "KaiA (natural protein)", "chain": "MLSQIAICIWVESTAILQDCQRALSADRYQLQVCESGEMLLEYAQTHRDQIDCLILVAANPSFRAVVQQLCFEGVVVPAIVVGDRDSEDPDEPAKEQLYHSAELHLGIHQLEQLPYQVDAALAEFLRLAPVETMADHIMLMGANHDPELSSQQRDLAQRLQERLGYLGVYYKRDPDRFLRNLPAYESQKLHQAMQTSYREIVLSYFSPNSNLNQSIDNFVNMAFFADVPVTKVVEIHMELMDEFAKKLRVEGRSEDILLDYRLTLIDVIAHLCEMYRRSIPRET"}},
  "key": {"[1]": {"molecular_target": "T1, KaiB–KaiC^Δ505-ST complex (preformed) ( | Synechococcus elongatus …, UniProt Q79PF5;Q79PF4)", "T1 sequence 1": "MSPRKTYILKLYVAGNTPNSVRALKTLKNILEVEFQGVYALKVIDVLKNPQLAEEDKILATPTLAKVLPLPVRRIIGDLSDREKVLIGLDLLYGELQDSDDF", "T1 sequence 2": "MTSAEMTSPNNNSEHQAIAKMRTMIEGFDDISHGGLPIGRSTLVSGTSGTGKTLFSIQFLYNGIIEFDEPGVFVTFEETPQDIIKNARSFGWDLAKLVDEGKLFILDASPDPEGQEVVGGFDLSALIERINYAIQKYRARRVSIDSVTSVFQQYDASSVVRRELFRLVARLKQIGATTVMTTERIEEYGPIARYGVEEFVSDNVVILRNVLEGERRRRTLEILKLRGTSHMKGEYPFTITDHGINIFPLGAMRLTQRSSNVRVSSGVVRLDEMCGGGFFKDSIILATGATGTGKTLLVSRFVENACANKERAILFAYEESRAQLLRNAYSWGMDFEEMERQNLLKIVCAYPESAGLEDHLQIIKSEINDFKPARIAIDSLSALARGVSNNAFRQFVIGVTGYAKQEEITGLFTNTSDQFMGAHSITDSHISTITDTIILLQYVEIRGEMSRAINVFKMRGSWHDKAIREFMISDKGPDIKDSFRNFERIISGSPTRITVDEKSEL", "test": "SEC-MALS"}, "[2]": {"molecular_target": "T2, KaiB–KaiC-ST complex (preformed for 48 h) ( | Synechococcus elongatus …, UniProt Q79PF5;Q79PF4)", "T2 sequence 1": "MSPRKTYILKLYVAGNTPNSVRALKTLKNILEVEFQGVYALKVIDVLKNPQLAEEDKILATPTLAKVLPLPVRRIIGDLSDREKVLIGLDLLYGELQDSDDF", "T2 sequence 2": "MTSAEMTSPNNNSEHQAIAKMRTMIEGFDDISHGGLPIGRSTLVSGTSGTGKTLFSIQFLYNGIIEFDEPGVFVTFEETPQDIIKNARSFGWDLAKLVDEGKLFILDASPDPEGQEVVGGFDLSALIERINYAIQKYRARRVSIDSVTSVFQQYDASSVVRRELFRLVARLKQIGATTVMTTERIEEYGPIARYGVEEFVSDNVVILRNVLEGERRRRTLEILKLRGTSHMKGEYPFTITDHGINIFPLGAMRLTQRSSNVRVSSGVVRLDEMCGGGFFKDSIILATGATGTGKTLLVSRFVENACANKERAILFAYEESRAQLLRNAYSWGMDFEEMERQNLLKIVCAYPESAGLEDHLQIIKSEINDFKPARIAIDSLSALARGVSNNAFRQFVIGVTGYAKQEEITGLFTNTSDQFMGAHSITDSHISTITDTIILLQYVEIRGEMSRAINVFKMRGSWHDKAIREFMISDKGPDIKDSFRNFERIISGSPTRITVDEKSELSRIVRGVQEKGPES", "test": "SEC-MALS"}, "KaiA": {"molecular_target": "B1", "test": "SEC-MALS"}, "KaiC^E357Q-AA": {"molecular_target": "T3, KaiC^E357Q-AA (Synechococcus elongatus PCC 7942, UniProt Q79PF4 1-519, E357Q | S431A | T432A)", "T3 sequence": "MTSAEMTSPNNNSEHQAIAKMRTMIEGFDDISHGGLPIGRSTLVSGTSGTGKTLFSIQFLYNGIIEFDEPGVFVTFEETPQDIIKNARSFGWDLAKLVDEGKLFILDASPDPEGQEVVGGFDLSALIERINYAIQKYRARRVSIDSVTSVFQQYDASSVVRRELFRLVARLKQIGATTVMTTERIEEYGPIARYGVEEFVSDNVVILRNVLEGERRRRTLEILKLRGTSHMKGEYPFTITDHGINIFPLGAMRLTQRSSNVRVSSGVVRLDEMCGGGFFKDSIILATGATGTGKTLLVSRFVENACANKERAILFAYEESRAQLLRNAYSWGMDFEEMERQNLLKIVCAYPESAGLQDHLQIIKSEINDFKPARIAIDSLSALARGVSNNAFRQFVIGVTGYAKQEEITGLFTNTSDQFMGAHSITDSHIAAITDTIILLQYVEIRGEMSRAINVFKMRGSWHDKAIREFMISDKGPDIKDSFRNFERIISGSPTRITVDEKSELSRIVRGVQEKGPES", "test": "native gel or EMSA"}, "crystal structure": {"molecular_target": "the molecule itself", "test": "crystal structure"}},
  "data": [
    {"binder": "B1", "values": [
      {"measurement": "binding result", "setting": "[1]", "result": "binds"},
      {"measurement": "binding result", "setting": "[2]", "result": "binds"}
    ]},
    {"binder": "KaiB (natural protein) MSPRKTYILKLYVAGNTPNSVRALKTLKNILEVEFQGVYALKVIDVLKNPQLAEEDKILATPTLAKVLPLPVRRIIGDLSDREKVLIGLDLLYGELQDSDDF", "values": [
      {"measurement": "binding result", "setting": "KaiA", "result": "binds"},
      {"measurement": "binding result", "setting": "KaiC^E357Q-AA", "result": "binds"}
    ]},
    {"binder": "S431A/T432A KaiC mutant (KaiC-AA) (enzyme) MTSAEMTSPNNNSEHQAIAKMRTMIEGFDDISHGGLPIGRSTLVSGTSGTGKTLFSIQFLYNGIIEFDEPGVFVTFEETPQDIIKNARSFGWDLAKLVDEGKLFILDASPDPEGQEVVGGFDLSALIERINYAIQKYRARRVSIDSVTSVFQQYDASSVVRRELFRLVARLKQIGATTVMTTERIEEYGPIARYGVEEFVSDNVVILRNVLEGERRRRTLEILKLRGTSHMKGEYPFTITDHGINIFPLGAMRLTQRSSNVRVSSGVVRLDEMCGGGFFKDSIILATGATGTGKTLLVSRFVENACANKERAILFAYEESRAQLLRNAYSWGMDFEEMERQNLLKIVCAYPESAGLEDHLQIIKSEINDFKPARIAIDSLSALARGVSNNAFRQFVIGVTGYAKQEEITGLFTNTSDQFMGAHSITDSHIAAITDTIILLQYVEIRGEMSRAINVFKMRGSWHDKAIREFMISDKGPDIKDSFRNFERIISGSPTRITVDEKSELSRIVRGVQEKGPES", "values": [
      {"measurement": "stoichiometry N", "setting": "crystal structure", "result": 6}
    ]}
  ]
}
